We go through 40 sequences from the nanobody polyreactivity screen of Harvey et al. (2022).

This series can be described thus: yeast display, Sf9 membrane polyspecificity reagent, FACS + sequencing; frameworks hold sequencing errors. An outline of the steps: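 Nanobodies from a synthetic yeast display library (Saccharomyces cerevisiae BJ5465), induced 36–48 hours with galactose, were stained 1 hour at 4 °C with 10% biotinylated, detergent-solubilized Sf9 membrane reagent, enriched on streptavidin microbeads, then FACS-sorted. Anti-HA (expression) and streptavidin (reagent binding) fluorescence set low and high (top ~1%) gates. Polyreactivity labels come from the gate of origin. Genes were colony-PCR amplified, MiSeq 2 × 250 sequenced and filtered by CDR length.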
On to “QVQLVESGGGLVQAGGSLLLSCAASGITFYGNAKGWDRQAPGKERELVAAITFSGGITYYADSVKGRFTISRDNAKNTVYLQMNRLKPEDTAVYYCATDPIGGWTRPQRYGDDYWGQGTQLTVSS”, for which the “polyreactivity (PSR sort gate)” value is “low polyreactivity”.
Regarding “QVQLVESGGGLVQAGGSLLLSCAASGLTFYLYAMGWYRQAPGKERELVAPISRRGGSTYYADSVKGRFTISRDNAKNTVYFQMKSLKPEYTAVYYCAGAFYSQTDYKFYYWGQGTQVTVSS”, the “polyreactivity (PSR sort gate)” value is reported as “high polyreactivity”.
In the case of “QVQLVESGGGLVQAGGSLLLSCAASGRIFRWNAMGWYRQAPGKERELVAAIRSRGGSTYYADSVKGRFTISRDNAKNTVYLQMNSLKPEDSAVYYCNARIASYRSIYDYWGQGTQVTVSS”, the “polyreactivity (PSR sort gate)” value was “high polyreactivity”.
With “QVQLVESGGGLVQAGGSLLLSCAASGRTFGYYAMGWYRQAPGKETELVAAISSGGGTYYADSVKGRFTISRDNAKNTVYLQMNSLKPEDTAVYYCAATGWVYWGQFDYWGQGTQVTVSS” the entry was “low polyreactivity”.
Turning to “QVQLVESGGGLVQAGGSLLLSCAASGRTILTYALGWNRQAPGKERDLVAAISKRGGSTYYADSVKGRFTISRDNAKNTVYLQRNSLKPEDTAVYYCAADNVNHYGYWGQGTQVTVSS”, the “polyreactivity (PSR sort gate)” value is “high polyreactivity”.
For the sequence “QVQLVESGGGLVQAGGSLLLSCAASGRTLFVYDMGWYRQAPGKERELVAAITWGVGSTYYADSVKGRFTISRDNAKNTVYLQLNSLKPEDTAVYYCNAVAIRYYRWYYYWGQGTQVTVSS”, the “polyreactivity (PSR sort gate)” value is on record as “high polyreactivity”.
With “QVQLVESGGGLVQAGGSLLLSCAASGRTSAYYAMGWYRQAPGKERELDAGITRGGRTNDADSVKWRFTISRDNAKYTDYFQMNSLNPEDTAVYYCAAKYGFYWNSRTSGYWGQVTQVTVSS” the entry was “high polyreactivity”; with “QVQLVESGGGLVQAGGSLLLSCAASGSIFDAYAMGWYRQSRGKERELVAAITSGGSTYYADSVKGRFTISRDNAKNNVYLQMNSLKPEDTAVYYCAAQYYDYKTTYDYWGQGTQVTVSS”, “high polyreactivity”; with “QVQLVESGGGLVQAGGSLLLSCAASGSIFGKNAMGWYRQAPGKERELVAAISRSGARTYYADSVKGRFTISRDNAKNTVYLQMNSLKPEDTAVYDCAAVYWWAYRGTYSSLYKHFVYWGQGSQVTVSS”, “high polyreactivity”.
The entry for “QVQLVESGGGLVQAGGSLLLSCAASGSIFITYAMGWYRLAPGKERELVAAIRDSGDRTYYADSVKGRFTISRDNAKNTVYLQMNSLKPEDTAVYDCNARWQEPLKYDYWGQGTQVTVSS” is “low polyreactivity”.
For the sequence “QVQLVESGGGLVQAGGSLLLSCAASGSIFPYYAMGMYRQAPGKERELVAAITDGGSTNYADSVKGRFTISRDNAKNTFYLQMNSLKQEDTAVYYCNKLPGYYDYDYWGQGTQVTVSS”, the “polyreactivity (PSR sort gate)” value is “low polyreactivity”.
Take “QVQLVESGGGLVQAGGSLLLSCAASGSIFYSNAMGWYRKAPGKERELVAAIRRSGGSTYYADSVKGRFTISRDNAKYTVYLQMNSLKPEDTAVYYCATTRRVPGEYWGQGTQVTVSS”: the “polyreactivity (PSR sort gate)” value is reported as “high polyreactivity”.
As to “QVQLVESGGGLVQAGGSLLLSCAASGSTFDDKAMGWYRQAPGKERELVAAISSDGSTNYADSVKGRFTISRDTAKNTVYLQMNCLKPADTAVYYCAAESPWDWGSWFEALYDYWGLGTQVTVSS”, the “polyreactivity (PSR sort gate)” value is “high polyreactivity”.
Consider “QVQLVESGGGLVQAGGSLLLSCAASGSTFDWYVMGWYRPAPGKERELVAAINQGSGSTYYADSVKGRFTISRDNAKNTVYLQMNSLKPEDTAVYYCAADRYGAGYLYWPYDYWGQGTQVTVSS”, for which the “polyreactivity (PSR sort gate)” value is “low polyreactivity”.
With “QVQLVESGGGLVQAGGSLLLSCAAYGSTFWYNAMGWYRQAHGKESELVAAITWTGSRTYYADSVKGRFTISRDNAKNTVYLQMNSLKPEDTAVYYCNRTRSFTRYDVFYGTIPAFDYWGQGTQVTVSS” the entry was “high polyreactivity”.
In the case of “QVQLVESGGGLVQAGGSLLLSCSASVLIFYDNDMGWYRQAPGKERVFVAAITSLGGSTYYADSVKGRFTISRDNAKNTVYLQMNSLKPEDTAVYYCNVKSKYYSPNYDYWGQVTQVTVSS”, the “polyreactivity (PSR sort gate)” value is “low polyreactivity”.
Turning to “QVQLVESGGGLVQAGGSLLLTCAASGITFGLYAMGWYREAPGKERELVAAIFSGGITYYADSVKGRFTISRDNAKNTVYLQMNSRKPVDTAVYYCAAYKYSYKYYYWGQGTQVTVSS”, the “polyreactivity (PSR sort gate)” value is listed as “low polyreactivity”.
Turning to “QVQLVESGGGLVQAGGSLPLSCAASGFNFRSYAMGWYRQAPGTERELVAAISSGGSTYYADSVKGRFTISRDNAKNTVYLQMNSLKPEDTAVYYCGASRYYGYGHWGQGTQVTVSS”, the “polyreactivity (PSR sort gate)” value was “high polyreactivity”.
For the sequence “QVQLVESGGGLVQAGGSLPLSCAASGRIFNQYGMVWYRQAPGKERELVAAIRSGDSTNYADSVKGRFTISRDNAMNTVYLQMKSLKPEDPAVYYCARDRPGDYAGYDYWGQGTQVTVSS”, the “polyreactivity (PSR sort gate)” value was “low polyreactivity”.
The entry for “QVQLVESGGGLVQAGGSLPLSCAASGRIFNYYAMGWYRQAPGKERDFVATISTSGGSTYYADSVKARFTISRDNAKNTVYLQMISLKPEDTAVYYCAARRYYSLRTFLYWFSKYDYWGQGTQVTVSS” is “high polyreactivity”; for “QVQLVESGGGLVQAGGSLPLSCAASGRIFRGYAMGWYRQAPGKERELVAAISRTGGSTYYADSVKGRFTISRDNAKNTVYLQMNSLKPEDTEVYYCNANRFRRYDWGQGTLVTVSS” it is “high polyreactivity”; for “QVQLVESGGGLVQAGGSLPLSCAASGRIFYFNAMGWYRPAPGKEREFVASINSIGDSTYYADSVKGRFTISRDNAKKTVYLQMHSLKPEDTAVYYCNADHGVINYRLDYWGQGTQVTVSS” it is “low polyreactivity”.
As for “QVQLVESGGGLVQAGGSLPLSCAASGRTFRRYAMGWYRQAPGKETELVAAISWGAGSTRYADSVKGRFTISRDNAKNTVYLQLNSLKPEDTAVYYCAAENTRAYGMYYWGQGTQVTVSS”, the “polyreactivity (PSR sort gate)” value was “high polyreactivity”.
Take “QVQLVESGGGLVQAGGSLPLSCAASGSIFDLYTMGWYRQAPGKEREMVASISSSGGSTYYADSVKGRFTISRDNAKNTVYLQMNSLKPEDTAVYYCAAVASYHAYQYYYWGQGTQVTVSS”: the “polyreactivity (PSR sort gate)” value is reported as “high polyreactivity”.
Turning to “QVQLVESGGGLVQAGGSLPLSCAASGSIFGTYAMGWYRQAPGKERELVAAITTSAGSTYYADSVKGRFTISRDNAKNTVYLQMKSLKPEDTAVYYCAARFRRGITYEYWGQGTQVTVSS”, the “polyreactivity (PSR sort gate)” value is on record as “high polyreactivity”.
On to “QVQLVESGGGLVQAGGSLPLSCAASGSNFWRNALGWYRQAPGKERELVAAISGSGGSTYYADSVKGRFTISRDNAKNTVYLQMNSLKPEDTAVYYSYVSRMDYWGQGTQVTVSS”, for which the “polyreactivity (PSR sort gate)” value is recorded as “high polyreactivity”.
Regarding “QVQLVESGGGLVQAGGSLPLSSAAYGSIFYYNAMGWYRQAPGKERELVAAISYSGDSTSYADSVKGRFTISRDNAKNYVFLQMYRLKPEDTAVFYCAAEQDYEDFYEDYYWGQGTQVTVSS”, the “polyreactivity (PSR sort gate)” value is on record as “high polyreactivity”.
“QVQLVESGGGLVQAGGSLPLTCAASGRIFGVYAMGWYRQAPGKERELVASISWSGSSTYYADSVKGRFTISRDNEKNTVYLQMNSLKPEDTAVYYCAADANHYRYGGGYWGQGTQVTVSS”: the “polyreactivity (PSR sort gate)” value is listed as “low polyreactivity”.
With “QVQLVESGGGLVQAGGSLRFNCSASGSIFVRYTIGWYRQAPGKERELVAAISWGGGSTYYADSVKGRFTISRDNANNTVYLQMNSLKPEDTAVYYCNKRYIQLYDYWGQGTQVTVSS” the entry was “low polyreactivity”; with “QVQLVESGGGLVQAGGSLRFSCAASGFIFRRYTMGWYRQAPGKERELVAAISITGSRTYYADSVKGRFTISRDNAKNTVYLQMNSLKPEDTAVYYCAARVWYAPKTLFGYDFDYWGQGTQVTVSS”, “high polyreactivity”; with “QVQLVESGGGLVQAGGSLRFSCAASGFIFTLYAMGWYRQAPGKERELVASIRGSGGNTYYADSVKGRFTISRDNEKNTVYLQMNSLKPEDTAVYYCAARTYRRPYYSWGQGTQVTVSS”, “high polyreactivity”.
For the sequence “QVQLVESGGGLVQAGGSLRFSCAASGFTFSYYAMGCYRQAPGKERELVAAISWSGGSTYYADSVKGRFTISRDTAKNTVYLQMNSLKPEDTAVYYCAAYLFYSSRSSYYGYDYWGQGTQVTVSS”, the “polyreactivity (PSR sort gate)” value is recorded as “high polyreactivity”.
Turning to “QVQLVESGGGLVQAGGSLRFSCAASGGIFFRNAMVWYRQAPGKEREFVAVISSGGSTYYADSVKGRFTISRDNAKNTVYLQMNSLKPEDTAVYYCAARRKRPGYTVTLHYPYNYWGQGTQVTVSS”, the “polyreactivity (PSR sort gate)” value is “high polyreactivity”.
For “QVQLVESGGGLVQAGGSLRFSCAASGGIFRLYGMGWYREAPGKERELVAAIRQSGGRTYYADSVKGRFTISRDNAKNTVYLQMNSLKPEDTAVYYCAADLLYRSSGTVRSDYSRYDYWGQGTQVTVSS”, the “polyreactivity (PSR sort gate)” value is on record as “low polyreactivity”.
Consider “QVQLVESGGGLVQAGGSLRFSCAASGIIFQRNDMGLYRQAPGKERELVANIRDGGITYADSVKGRFTLSRDNAKNTFYLQMNSLKPEDTAVYYCAADYHTPSSFAPIELYDYWGQGTQVTVSS”, for which the “polyreactivity (PSR sort gate)” value is “low polyreactivity”.
Regarding “QVQLVESGGGLVQAGGSLRFSCAASGRIFGRYAMGWYRQAPGKERELVAAISSTGGSTYYADSVKGRFTISRDNANNTVYLQMNSLKPEDTAVYYCATVWYGRYYWATEYWGQGTQVTVSS”, the “polyreactivity (PSR sort gate)” value is reported as “high polyreactivity”.
With “QVQLVESGGGLVQAGGSLRFSCAASGRPFPYYVMGWYRQAPGKERELVAAINSGGRTNYADSVKGRFTISRDNAKNTVYLQMNSLKPEDTAVYYCTKRGHPARLGYYYWGQGTQVNVSS”, the “polyreactivity (PSR sort gate)” value is “low polyreactivity”.
For the sequence “QVQLVESGGGLVQAGGSLRFSCAASGRTFPVYAMGWYRQAPGKEREFVAAISYRTGSTYYADSVKGRFTISRDNAKNTVYLQMNSLKPVDSAVYYCAADYRGSYWRYYYWGQGTQVTVSS”, the “polyreactivity (PSR sort gate)” value is listed as “high polyreactivity”.
Turning to “QVQLVESGGGLVQAGGSLRFSCAASGRTFTIYAMGWYRQAPGKERELVAAISWSEGSTYYADSVKGRFTISRDNAKNTVYLQMNSLKPEDTAVYYCAREVYGDASAPDMDYWGQGTQVTVSS”, the “polyreactivity (PSR sort gate)” value is recorded as “low polyreactivity”.
Take “QVQLVESGGGLVQAGGSLRFSCAASGRTFWSNAMGWYRQAPGKERDFVAVISRAGSTTYYADSVKGRFTISRDNAKNTVYLQMNSLIPEETAVYYCAADRVRSYFSRYYSTPLDYYWGQGTQVTVSS”: the “polyreactivity (PSR sort gate)” value is recorded as “high polyreactivity”.
